Reference: article doi:10.1101/2025.03.28.645925 (bioRxiv, 2025)
Where a chain is given by its changes, count along the chain named. Numbers in names are those of the source. Where “and” joins values, the source holds several entries; their conditions need not be identical. Identical values can stand only once. Like-named read-outs stand apart in the source and are kept apart here.

Columns and labels:
[1] = target: NrdR1^PAO (P. aeruginosa NrdR with a two amino acid linker after SUMO protease digestion) (P. aeruginosa PAO1); test: SEC
[2] = target: NrdR1^PAO (P. aeruginosa NrdR with a two amino acid linker after SUMO protease digestion) (P. aeruginosa PAO1); test: SEC; remark: listed apart in the source
[3] = target: NrdR2^PAO (GSGSGS-NrdR2, P. aeruginosa NrdR after TEV digestion) (P. aeruginosa PAO1); test: SEC-MALS
[4] = target: NrdR2^PAO (GSGSGS-NrdR2, P. aeruginosa NrdR after TEV digestion) (P. aeruginosa PAO1); test: SEC-MALS; remark: listed apart in the source
[5] = target: NrdR2^PAO (GSGSGS-NrdR2, P. aeruginosa NrdR after TEV digestion) (P. aeruginosa PAO1); test: SEC-MALS; remark: listed apart in the source
SEC = target: the molecule itself; test: SEC
SEC-MALS [6] = target: the molecule itself; test: SEC-MALS
P0A8D0 [7] = test: SEC-MALS
P0A8D0 [8] = test: SEC-MALS; remark: listed apart in the source
SEC-MALS [9] = target: the molecule itself; test: SEC-MALS; remark: listed apart in the source
SEC-MALS [10] = target: the molecule itself; test: SEC-MALS; remark: listed apart in the source
SEC-MALS [11] = target: the molecule itself; test: SEC-MALS; remark: listed apart in the source
SEC-MALS [12] = target: the molecule itself; test: SEC-MALS; remark: listed apart in the source
SEC-MALS [13] = target: the molecule itself; test: SEC-MALS; remark: listed apart in the source

NrdR1^PAO (P. aeruginosa NrdR with a two amino acid linker after SUMO protease digestion) (natural protein)
stoichiometry N [1]: 6 and 2 | stoichiometry N [2]: 2 and 3

NrdR2^PAO (GSGSGS-NrdR2, P. aeruginosa NrdR after TEV digestion) (natural protein)
stoichiometry N [3]: > 2 | stoichiometry N [4]: 2 | stoichiometry N [5]: > 2

B1: NrdR^PAO-H6 (P. aeruginosa NrdR with a C-terminal 6His-tag) (natural protein, P. aeruginosa PAO1, UniProt Q9HWX1 1-154, looked up)
chain: MHCPFCGAHDTKVIDSRLVAEGDQVRRRRECLACGERFTTFETAELVMPRLIKQDGSRQPFDEDKLRAGMQRALEKRPVSVERLEAAIGHIKHQLRATGEREIKSRVLGELVMAELQKLDEVAYIRFASVYRRFQDLNEFREEIERLAREPAKE
binding result (SEC): binds

B2: SUMO-NrdR2^ECO E42A (natural protein, E. coli K-12 MG1655)
chain: ENLYPQGSGSGSMHCPFCFAVDTKVIDSRLVGEGSSVRRRRQCLVCNERFTTFAVAELVMPRVVKSNDVREPFNEEKLRSGMLRALEKRPVSSDDVEMAINHIKSQLRATGEREVPSKMIGNLVMEQLKKLDKVAYIRFASVYRSFEDIKEFGEEIARLED
stoichiometry N (SEC-MALS [6]): 2 | percent of the protein mass in the monomer peak (P0A8D0 [7]): 63% in a peak with average Mw 33.21 kDa | percent of the protein mass in the monomer peak (P0A8D0 [8]): 83% in a peak with average Mw 36.88 kDa

B3: SUMO-NrdR2^ECO (undigested 6His-SUMO-TEVcs-(SGSGS)-NrdR, E. coli), wild type (natural protein, E. coli K-12 MG1655)
chain: B2 chain with A54E
stoichiometry N (SEC-MALS [9]): 4 and 8 | stoichiometry N (SEC-MALS [6]): 2 and ≥ 4 | stoichiometry N (SEC-MALS [10]): 12

B4: SUMO-NrdR2^ECO E36A (natural protein, E. coli K-12 MG1655)
chain: B2 chain with E48A, A54E
stoichiometry N (SEC-MALS [9]): 3 | stoichiometry N (SEC-MALS [6]): 2 and ≥ 4

B5: SUMO-NrdR2^ECO Y131A (natural protein, E. coli K-12 MG1655)
chain: B2 chain with A54E, Y143A
stoichiometry N (SEC-MALS [6]): 2 | stoichiometry N (SEC-MALS [10]): 4 and 8 and 3

B6: SUMO-NrdR2^ECO Δ(132-149) (domain or fragment, E. coli K-12 MG1655)
chain: ENLYPQGSGSGSMHCPFCFAVDTKVIDSRLVGEGSSVRRRRQCLVCNERFTTFEVAELVMPRVVKSNDVREPFNEEKLRSGMLRALEKRPVSSDDVEMAINHIKSQLRATGEREVPSKMIGNLVMEQLKKLDKVAYIRFASVY
stoichiometry N (SEC-MALS [6]): 2

B7: NrdR2^ECO (GSGSGS-NrdR2, E. coli NrdR after TEV digestion) (natural protein, E. coli K-12 MG1655)
chain: GSGSGSMHCPFCFAVDTKVIDSRLVGEGSSVRRRRQCLVCNERFTTFEVAELVMPRVVKSNDVREPFNEEKLRSGMLRALEKRPVSSDDVEMAINHIKSQLRATGEREVPSKMIGNLVMEQLKKLDKVAYIRFASVYRSFEDIKEFGEEIARLED
stoichiometry N (SEC-MALS [6]): 2 | stoichiometry N (SEC-MALS [11]): 6 | stoichiometry N (SEC-MALS [10]): 15 to 16 | stoichiometry N (SEC-MALS [12]): 4 to 10 (2×) and 8 | stoichiometry N (SEC-MALS [13]): 3
